Measurements: publication PMC6555819, “Comprehensive study of nuclear receptor DNA binding provides a revised framework for understanding receptor specificity”
Positions count from the first letter of the chain named.

B1: NRC3_wobSeed2_DR0_C19A_o1 (dsDNA)
DNA 1: GCCCTAGTTGGTCAAGGTAACACACGCTATAGGTACGCGATTGACAGCGTAGAATGAAGG
DNA 2: CCTTCATTCTACGCTGTCAATCGCGTACCTATAGCGTGTGTTACCTTGACCAACTAGGGC
B2: NRC3_wobSeed99_DR4_C23G_o1 (dsDNA)
DNA 1: GCTCTCGGAGGACACGAAAGGTGAGAGCTCGACATCGCGATTGACAGCGTAGAATGAAGG
DNA 2: CCTTCATTCTACGCTGTCAATCGCGATGTCGAGCTCTCACCTTTCGTGTCCTCCGAGAGC
B3: NRC3_wobSeed117_DR4_A9C_o1 (dsDNA)
DNA 1: GCCGTCAACGTTCAACTAAGGTAACGTAAAGCACGCGCGATTGACAGCGTAGAATGAAGG
DNA 2: CCTTCATTCTACGCTGTCAATCGCGCGTGCTTTACGTTACCTTAGTTGAACGTTGACGGC
B4: NRC3_wobSeed104_DR4_G7A_o1 (dsDNA)
DNA 1: GCTCTTATAGATCAATAGAGGTTAAGAAAGTGCGCTGCGATTGACAGCGTAGAATGAAGG
DNA 2: CCTTCATTCTACGCTGTCAATCGCAGCGCACTTTCTTAACCTCTATTGATCTATAAGAGC
B5: NRC3_wobSeed72_DR2_T24C_o1 (dsDNA)
DNA 1: GCTCGAGTAGGTTACGGGGGCATCCAGGGATGAAGAGCGATTGACAGCGTAGAATGAAGG
DNA 2: CCTTCATTCTACGCTGTCAATCGCTCTTCATCCCTGGATGCCCCCGTAACCTACTCGAGC
B6: NRC3_wobSeed34_DR1_G22C_o1 (dsDNA)
DNA 1: GCATCGAAAGGTCGAAGGTGACTATACCCACCCGAAGCGATTGACAGCGTAGAATGAAGG
DNA 2: CCTTCATTCTACGCTGTCAATCGCTTCGGGTGGGTATAGTCACCTTCGACCTTTCGATGC
B7: NRC3_wobSeed120_DR4_A14C_o1 (dsDNA)
DNA 1: GCCCGAGTAGGTTCCGAGGGGGCATTCAGTGCGAATGCGATTGACAGCGTAGAATGAAGG
DNA 2: CCTTCATTCTACGCTGTCAATCGCATTCGCACTGAATGCCCCCTCGGAACCTACTCGGGC
B8: NRC3_wobSeed120_DR4_G10A_o1 (dsDNA)
DNA 1: B7 DNA 1 with G10A, C14A
DNA 2: B7 DNA 2 with G47T, C51T
B9: NRC3_wobSeed137_DR5_A29T_o1 (dsDNA)
DNA 1: GCATATGTAGGTTACATCCGGGTCATTCTGGCTATGGCGATTGACAGCGTAGAATGAAGG
DNA 2: CCTTCATTCTACGCTGTCAATCGCCATAGCCAGAATGACCCGGATGTAACCTACATATGC
B10: NRC3_wobSeed137_DR5_G21A_o1 (dsDNA)
DNA 1: B9 DNA 1 with G21A, T29A
DNA 2: B9 DNA 2 with A32T, C40T
B11: NRC3_wobSeed53_DR2_T12C_o1 (dsDNA)
DNA 1: GCCCTTACGGGCCACGAGGTTATAGCACGACGAGCGGCGATTGACAGCGTAGAATGAAGG
DNA 2: CCTTCATTCTACGCTGTCAATCGCCGCTCGTCGTGCTATAACCTCGTGGCCCGTAAGGGC
B12: NRC3_wobSeed65_DR2_T12A_o1 (dsDNA)
DNA 1: GCATATGTAGGATATCGGGTCATTCAGTTTGCGCATGCGATTGACAGCGTAGAATGAAGG
DNA 2: CCTTCATTCTACGCTGTCAATCGCATGCGCAAACTGAATGACCCGATATCCTACATATGC
B13: NRC3_wobSeed58_DR2_T12G_o1 (dsDNA)
DNA 1: GCATCGAAAGGGCGTGAGGTGAGTATACAGAAAGGCGCGATTGACAGCGTAGAATGAAGG
DNA 2: CCTTCATTCTACGCTGTCAATCGCGCCTTTCTGTATACTCACCTCACGCCCTTTCGATGC

The binders below were run against PXR:RXRa (Homo sapiens, UniProt O75469;P19793 full;full) (assay: no ligand; PBM; 270 nM : 90 nM RXRa; PBS pH 7.4, 2% milk, 0.02% Triton X-100, 1 mM DTT, BSA, 0.4 mg/ml salmon testes DNA). Details: tags: His kept;His cleaved; copies: 1;1; label: surface-attached array probe.
Chain of PXR:RXRa (O75469 whole entry, chain 1 of 2): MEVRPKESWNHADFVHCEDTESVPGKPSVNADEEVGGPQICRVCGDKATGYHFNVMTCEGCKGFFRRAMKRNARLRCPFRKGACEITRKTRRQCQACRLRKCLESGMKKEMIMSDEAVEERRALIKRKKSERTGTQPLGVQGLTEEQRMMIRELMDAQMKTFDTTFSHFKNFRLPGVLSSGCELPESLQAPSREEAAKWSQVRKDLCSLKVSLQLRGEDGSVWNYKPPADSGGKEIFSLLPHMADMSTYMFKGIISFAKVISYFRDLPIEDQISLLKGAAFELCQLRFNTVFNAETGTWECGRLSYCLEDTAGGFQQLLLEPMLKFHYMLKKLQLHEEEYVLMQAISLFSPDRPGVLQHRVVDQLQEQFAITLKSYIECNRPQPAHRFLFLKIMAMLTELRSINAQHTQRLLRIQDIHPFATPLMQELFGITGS
Chain of PXR:RXRa (P19793 whole entry, chain 2 of 2): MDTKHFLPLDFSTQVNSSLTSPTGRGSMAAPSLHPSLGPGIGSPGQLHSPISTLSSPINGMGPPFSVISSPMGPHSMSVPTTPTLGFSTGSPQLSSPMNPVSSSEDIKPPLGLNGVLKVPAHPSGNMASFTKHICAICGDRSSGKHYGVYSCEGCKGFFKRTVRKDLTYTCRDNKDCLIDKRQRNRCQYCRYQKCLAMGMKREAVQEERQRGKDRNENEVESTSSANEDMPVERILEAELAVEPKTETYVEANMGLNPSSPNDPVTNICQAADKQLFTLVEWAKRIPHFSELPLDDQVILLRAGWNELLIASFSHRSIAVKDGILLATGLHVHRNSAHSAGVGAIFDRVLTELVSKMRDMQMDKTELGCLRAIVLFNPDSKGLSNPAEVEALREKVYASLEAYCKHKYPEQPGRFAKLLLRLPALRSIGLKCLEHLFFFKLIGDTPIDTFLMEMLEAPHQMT
How it was run: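 Ligand-free nuclear receptor dimers were bound for 1 h to custom Agilent 4×180K protein-binding microarrays. Detection used antibodies against each partner (one per run). Binding z-scores rest on regression-normalized fluorescence, with random background probes as the reference.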
B1 was tested, and the binding signal was 0.48 PBM z-score against 500 random probes.
B2 was tested, and the binding signal was 0.4 PBM z-score against 500 random probes.
B3 was tested, and the binding signal was 0.48 PBM z-score against 500 random probes.
In the case of B4, the binding signal is reported as 3.11 PBM z-score against 500 random probes.
With B5 the binding signal was 3.05 PBM z-score against 500 random probes.
With B6 the binding signal was 3.06 PBM z-score against 500 random probes.
With B7 the binding signal was 3.13 PBM z-score against 500 random probes.
B8 was tested, and the binding signal was 3.08 PBM z-score against 500 random probes.
For B9, the binding signal was 3.07 PBM z-score against 500 random probes.
For B10, the binding signal was 0.38 PBM z-score against 500 random probes.
For B11, the binding signal was 0.44 PBM z-score against 500 random probes.
For B12, the binding signal was 3.03 PBM z-score against 500 random probes.
In the case of B13, the binding signal is reported as 0.34 PBM z-score against 500 random probes.
